Reference: patent US9888679B2, “Protection of progenitor cells and regulation of their differentiation” (Proteobioactives Pty Ltd, priority 2007, dated 2018)
“Also recorded” adds a separate entry of the source.

Experiments:
Murine ATDC5 cell line = assay: Proteoglycan biosynthesis (35S-GAG) in pellet cultures; type: cell-based; conditions: pellet cultures, FIG. 22
Excerpt: FIG. 12. A bar graph of the concentration dependent effects of Pentosan Polysulfate (PPS), on the biosynthesis of Proteoglycans (PGs) as determined by the incorporation of radioactively labelled sulfate into the sulfated glycosaminoglycans (^35S-GAG) of PGs in 6 day pellet cultures of murine progenitor cells (ADTC-5). *=p<0.05 relative to control.
FIG. 22. A bar graph of the concentration dependent effects of rhNC4 (batch PBA-1202P) expressed by K. lactis, in the absence (maintenance media, MM) and presence of insulin (10 micrograms/mL) (differentiation media, DM), on the biosynthesis of Proteoglycans PGs) in pellet cultures of ATDC5 cells. Data is shown as the % change relative to controls taken to be 100%.
Murine Progenitor cells (cell lines C3H10T1/2 or ATDC5) purchased from RIKEN Cell Bank (Tsukuba, Japan) or human immunoselected Stro-1+ Progenitor cells (Mesoblast Ltd, Melbourne, Australia) were seeded in 2 ml screw-capped sterile centrifuge tubes and the total volume made-up to 1 ml with DMEM-High glucose medium containing 10% FBS. Progenitor cells were then centrifuged at 500 g for 10 min in a swing-out rotor at room temperature. The screw caps were loosened and the tubes placed in an incubator at 37° C., in a 5% CO2/95% air moist atmosphere. The pellets generally formed within 24 hours. Medium was changed daily in the first two days, then once every 2-3 days thereafter. On day 5 the medium was removed and to each tube was added 1 ml with DMEM-High glucose medium containing 10% FBS, 5.0 μCi/ml ^35S-H2SO4 and various concentrations of PPS (0, 0.1, 0.5, 1.0, 2.5, 5.0, 10.0, 20.0, μg/ml) (FIG. 12-15) or rhNC4 (0, 0.1, 0.5, 1.0, 2.0 μg/ml) (FIG. 22). Triplicate cultures were used for all concentration of drugs. The screw caps were loosened and the tubes placed in an incubator at 37° C., in a 5% CO2/95% moist air atmosphere […]. On day 6, 200 μl of stock papain solution [2.5 mg/ml papain, 7.9 mg/ml L-Cystein in papain buffer (0.1 M NaAC, 5 mM EDTA, pH6.0)] was added to each tube. The tubes were tightly capped and incubated at 65° C. for 2 hours. After papain digestion, 4 replicates of 200 μl of papain digested solution were separately transferred to a 96-well micro-titre plate (200 μl/well). The remaining solution was used for the DNA fluorometric assays which were undertaken in triplicate as described above. Biosynthesis of ^35S-GAGs was determined as described for the monolayer cultures and the results expressed as ^35-S-GAGs/μg DNA.
Data is shown as the % of controls taken to be 100%.

[1] = test system: murine ATDC5 progenitor cells; assay: Proteoglycan biosynthesis (35S-GAG) in monolayer cultures, maintenance or differentiation media; type: cell-based
Excerpt: (§1) FIG. 21. A bar graph of the concentration dependent effects of rhNC4 (batch PBA-1202P) expressed by K. lactis, in the absence (maintenance media, MM) and presence of insulin (10 micrograms/mL) (differentiation media, DM), on the biosynthesis of Proteoglycans (PGs) as determined by the incorporation of radioactively labelled sulfate into the sulfated glycosaminoglycans (^35S-GAG) of PGs after 3 day culture with Murine ATDC5 progenitor cells. The data was expressed as % change relative to control cultures that contained no rhNC4. P<0.05 was statistically significant relative to control cultures.
FIG. 24. A bar graph of the concentration dependent effects of combinations of rhNC4 (batch PBA-1202P) and Pentosan Polysulfate (PPS) on the biosynthesis of 35S-PGs by monolayer cultures of Murine ATDC5 progenitor cells. Data is expressed relative to control (maintenance media, MM) which was taken as 100%.
as §1, with “31.” for “21.”
FIG. 32. A bar graph of the concentration dependent effects of Pentosan Polysulfate (PPS), in the presence of insulin (10 micrograms/mL), on the biosynthesis of Proteoglycans PGs) as determined by the incorporation of radioactively labelled sulfate into the sulfated glycosaminoglycans (^35S-GAG) of PGs after 3 day culture with Murine ATDC5 progenitor cells. The data was expressed as ^35S-GAG radioactivity as counts per minute (CPM) and decays per minute (DPM) relative to control cultures that contained no PPS. P<0.05 was statistically significant relative to control cultures.
Murine Progenitor cells (cell lines C3H10T1/2 or ATDC5) purchased from RIKEN Cell Bank (Tsukuba, Japan) or human immunoselected Stro-1+ Progenitor cells (Mesoblast Ltd, Melbourne, Australia) were seeded into 50 mL plastic culture flasks containing 1:1 high glucose DMEM/Ham's F-12 medium (Invitrogen) supplemented with 10% FBS (Sigma) and incubated at 37° C., in 5% CO2. […] The experiments were generally terminated after 48 hours incubation when proteoglycan biosynthesis was determined by measuring the incorporation of ^35SO4 into the glycosaminoglycans (^35S-GAGs) as described below.
The data was expressed as % change relative to control cultures that contained no rhNC4. […]

ATDC5 cell = assay: Kinetics of ATDC5 cell growth over 13 days; type: cell-based, murine; conditions: rhNC4 (batch PBA-1200P) 5 ug/ml or Insulin 10 ug/ml; 20,000 cells per well at Day 0; FIG. 30
Procedure: FIG. 30. A bar graph of the kinetics of ATDC5 cell growth induced by rhNC4 (batch PBA-1200P) (5 ug/ml) or Insulin (10 ug/ml) relative to control over 13 days. 20,000 cells per well were seeded at Day 0 (Start) with medium changes every 48 hrs. Insulin treated cultures reached confluence on day 6 and PBA-1200P on day 9. Control cultures also reached confluence on day 9 but in contrast to cultures containing insulin or PBA-1200P ceased to undergo replication.

B1: rhNC4: recombinant human non collagenous NC4 domain of the alpha-1 chain of type IX collagen, expressed by K. lactis (protein, listed as Homo sapiens)
chain: AVKRRPRFPVNSNSNGGNELCPKIRIGQDDLPGFDLISQFQVDKAASRRAIQRVVGSATLQVAYKLGNNVDFRIPTRNLYPSGLPEEYSFLTTFRMTGSTLKKNWNIWQIQDSSGKEQVGIKINGQTQSVVFSYKGLDGSLQTAAFSNLSSLFDSQWHKIMIGVERSSATLFVDCNRIESLPIKPRGPIDIDGFAVLGKLADNPQVSVPFELQWMLIHCDPLRPRRETCHELPARITPSQTTDER
rhNC4 concentration producing the optimum effect on PG synthesis (Murine ATDC5 cell line; maintenance media): 0.5 micrograms/mL
PG synthesis (Murine ATDC5 cell line; rhNC4): stimulatory effect
rhNC4 concentration of maximum effects on PG synthesis ([1]; maintenance and differentiation media, FIG. 21): 1 microgram/mL
PG synthesis ([1]; rhNC4, absence (maintenance media) and presence of insulin (differentiation media), 3 day culture, FIG. 21/31): stimulated PG synthesis; also recorded: concentration dependent stimulation of PG synthesis
day on which cultures reached confluence (ATDC5 cell): 9 days
